Assay [1] addresses T1, CsLinker α3 fragment (residues 142–207) (Chlorella sorokiniana UTEX1230).
T1 construct: CsLinker (CSI2_123000012064), Chlorella sorokiniana UTEX1230, residues 142–207: one whole repeat centred on predicted α-helix 3; residues numbered by their position in the full-length CsLinker; From the plasmid His-mEGFP-TEV-α3-TEV-MBP-His; also called single helix α3 fragment; source: E. coli BL21 (DE3), purified (IMAC, TEV cleavage, second IMAC, SEC); not shown: His6, N-terminal, cleaved; …
The assay is described as follows: SPR; Rubisco immobilised as bait, fragments as analyte (prey); Biacore T100/T200, 25 °C; analyte injected at 15 μl/min for 30 s, 360 s dissociation; fit of y = Bmax·x/(KD + x); apparent KD; triplicate. The conditions noted are these: both partners purified. (In general: SPR reads the build-up and loss of mass on a sensor chip optically.)

In assay [2] the target is T2, CsLinker α3–α4 fragment (residues 142–272) (Chlorella sorokiniana UTEX1230).
T2 construct: CsLinker (CSI2_123000012064), Chlorella sorokiniana UTEX1230, residues 142–272: two repeats with predicted α-helices 3 and 4; residues numbered by their position in the full-length CsLinker; From the plasmid His-mEGFP-TEV-α3–α4-TEV-MBP-His; also called α3–α4 double repeat fragment; source: E. coli BL21 (DE3), purified (IMAC, TEV cleavage, second IMAC, SEC); not shown: His6, N-terminal, cleaved; …
The assay is described as above. The conditions noted are these: both partners purified.

B1: Ulva mutabilis Rubisco (UmRubisco) (complex)
chain 1: GVKDYRLTYYTPDYQVKDTDILAAFRMTPQPGVPAEEAGAAVAAESSTGTWTTVWTDGLTSLDRYKGRCYDIEPLGEDDQYIAYIAYPLDLFEEGSVTNLFTSIVGNVFGFKALRALRLEDLRIPPAYVKTFQGPPHGIQVERDKLNKYGRGLLGCTIKPKLGLSAKNYGRAVYECLRGGLDFTKDDENVNSQPFMRWRDRFLFVAEAIYKSQSETGEVKGHYLNATAGTCEEMMERGQFAKDLGVPIVMHDYITGGFTANTTLAHFCRASGLLLHIHRAMHAVIDRQRNHGIHFRVLAKILRMSGGDHLHSGTVVGKLEGEREITLGFVDLMRDDYIEKDRSRGIYFTQDWVSLPGTMPVASGGIHVWHMPALVEIFGDDACLQFGGGTLGHPWGNAPGAAANRVALEACTQARNEGRDLASEGGDVIRAA
chain 2: MRVWTPHNNKMFETFSFLPPLSHGEIARQVDYIIANGWTSCLEFADSDCAYVQDKANIRFGNSASCNYYDNRYWTMWKLPMFGCTNPNEVLGEIDSCKRAFPESYIRLVAFDNIAQCQTIGFLVNRPPRSGDFQSPENRSVA
On to B1, for which the Kd in assay [1] came to 162 µM; in assay [2], 1.56 µM.

(Values after publication PMC11570498, “A promiscuous mechanism to phase separate eukaryotic carbon fixation in the green lineage” (Nature Plants, 2024).)
